± gives the standard deviation of the averaged measurements.
System: ATP
Assay: switch fluorescence ratio, 500 uM ATP over buffer (Cy3 cluster intensity, sum of 5 cycles each) (fold (ratio)); higher = stronger signal-on switching upon ATP binding; sequences stand for … in TCGTCGGCAGCGTCAGATGTGTATAAGAGACAGTTTTTTTTTTTTTTTTTTTTTTTTT…TC
Details: aptamer strand: ATP DNA aptamer (quencher-CACCTGGGGGAGTATTGCGGAGGAAGG + anchor), 100 nM annealed; ATP concentration: 500 uM
Outline: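 After annealing to 100 nM quencher-labelled ATP aptamer, Cy3-labelled switching-strand clusters on a modified Illumina MiSeq flow-cell were imaged in selection buffer. A second image followed after 15 min with 500 uM ATP at 22 °C, and five such buffer/ATP cycles were done, each separated by NaOH stripping and re-annealing. The fluorescence ratio, averaged per switch-domain sequence, is summed target-cycle over summed buffer-cycle Cy3 intensity per cluster, with clusters outside 100-1000 RFU excluded.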
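Further: ATP exposure 15 min at 22 °C before imaging.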

Sequence	switch fluorescence ratio
ATTGAACGTT	0.979 ± 0.015
TGGTTATGGC	0.923 ± 0.082
TTGGTCAAAA	1.022 ± 0.0089
TTTCGCTCTT	1.12 ± 0.25
TGTTGTGCAG	0.958 ± 0.03
GGGATTTTGC	0.952 ± 0.015
GCTAATAGCC	1.059 ± 0.00084
AGATTATAGC	1.02 ± 0.045
GCTCTCGGTA	1.03 ± 0.039
AGTCCCCCTA	1.08 ± 0.069
CTATCCATGG	0.993 ± 0.017
AACCGTGGGG	1.05 ± 0.042
TAAATACTAT	1.01 ± 0.018
CTTGAATGCG	0.999 ± 0.031
TAAAAGCGGG	1 ± 0.013
TGTAGGGTAG	0.958 ± 0.017
ATGTTTATCA	1.01 ± 0.055
AATAATTGAC	1.099 ± 0.0086
TTTAGGTTGG	0.994 ± 0.031
CCAAGTGGGA	0.985 ± 0.01
ATTCTGTTAG	0.993 ± 0.0092
TGGGAGGATG	1.01 ± 0.039
GGGCTAAAGG	1.04 ± 0.03

Sequence	switch fluorescence ratio
GTGGTGCTAG	0.97206 ± 1.9e-05
ATAGGGGA	0.989 ± 0.018
TTATTGTAT	0.988 ± 0.043
CACTGGGGTT	0.988 ± 0.017
ACAGAAATGG	1.014 ± 0.0011
GGGTGGAAAG	0.984 ± 0.041
GCATGAAGCA	1 ± 0.017
GTTCAAGGGG	0.983 ± 0.039
GGGGGGGCAC	1.01 ± 0.029
GGATTTTTTG	0.983 ± 0.021
AAGAGGTCTC	0.9681 ± 0.0023
CAGGGCAGCC	1.01 ± 0.03
CAGGCGGAAA	0.98 ± 0.015
CAGGGGGTCC	1.01 ± 0.022
AGGCGGGGTT	1.01 ± 0.026
TAATCGTGGG	1.02 ± 0.011
TGATGGGTTA	0.962 ± 0.029
TGGGAGGTCG	1.09 ± 0.03
TAGTTTGGAA	0.984 ± 0.04
TTCAGGTTTC	1 ± 0.037
ATAAAGCATA	1.03 ± 0.026
TATTGACCGT	1.04 ± 0.029
TGACTGGGAA	1.06 ± 0.091

Sequence	switch fluorescence ratio
GAAAATTATG	1.009 ± 0.0086
TGGGAGGGTA	0.982 ± 0.022
CTGGTTGGAG	0.995 ± 0.022
TGAGGTATG	0.971 ± 0.046
TGGTATGCGG	1.02 ± 0.013
TTATAATTGA	1.02 ± 0.031
ACCGGGGCTC	1.05 ± 0.052
GGTTTAAGTG	0.979 ± 0.052
GATTTTGGTT	0.998 ± 0.014
TATTGTGAAA	0.988 ± 0.012
TGGAGTAATT	1.06 ± 0.063
TGGGTAAGTT	0.996 ± 0.039
AAAACTTTTG	1.02 ± 0.038
TAAAGGTAGG	1.01 ± 0.041
GGATATCAAG	1.01 ± 0.016
CTTCACTACG	1.12 ± 0.043
TTGTTGAATA	1.003 ± 0.0016
TGCCGTTCTT	1 ± 0.021
AATAACACGT	1 ± 0.026
ATGTGAGTTC	0.985 ± 0.022
GTTTTCGGTA	0.9802 ± 8.4e-05
CCGTTTGTGC	1.21 ± 0.063
GGGGAAGGGT	1.08 ± 0.23

Sequence	switch fluorescence ratio
CGGTATTTTT	1.02 ± 0.028
CCGGTCAGTG	1.066 ± 0.0088
GATAAGGGGA	1.03 ± 0.023
ATATCAAGGA	1 ± 0.029
TTGGCGGAGT	1.01 ± 0.032
GTTGTAAGTT	0.978 ± 0.0098
TTGGATCTTA	0.972 ± 0.02
GGGTAGAGTG	1.006 ± 0.0019
GACAATGGTG	1.021 ± 0.0049
CAATAAATAT	0.97 ± 0.032
AATGATAAGC	1.04 ± 0.028
TGTAGGAGGG	0.993 ± 0.01
AGCGGAGGGG	1.04 ± 0.033
TATTGACGGA	1.006 ± 0.0096
TCAATTTAGA	1.03 ± 0.038
GCGCCTTAAA	0.967 ± 0.041
TCTCTGGATG	1.02 ± 0.013
CGTCAACTGC	1.17 ± 0.039
AAAAACATTT	0.998 ± 0.051
ATAGTGGTGC	0.958 ± 0.067
TTCGGTAGCG	0.996 ± 0.046
GTTGGAGGAT	0.9843 ± 0.0026
ATCGGAGGGC	1.02 ± 0.013

Sequence	switch fluorescence ratio
ATTAATGCGG	1.07 ± 0.032
AAATTGGCTT	0.97 ± 0.044
TTGATGGGTT	1.02 ± 0.011
TTATGGTCCG	0.976 ± 0.045
GGCAGTGTGC	0.99 ± 0.022
TGTTGGAGTG	1.003 ± 0.0044
GTATAAGCCT	1.05 ± 0.041
AGTTAGGGCA	0.988 ± 0.042
GGTTATTGGA	0.995 ± 0.058
GTTGGAGCTA	1.036 ± 0.0083
GGGCTAAATC	1.01 ± 0.06
CGGTCCGGTT	0.9862 ± 0.0018
TGTGACAGTT	1.09 ± 0.1
CGACATGGTC	1.02 ± 0.015
AGTAAGTTTT	1.032 ± 0.0011
GGGCCAGTAT	0.963 ± 0.017
CGGCAATGTT	1.73 ± 0.14
TCATGGTCGT	0.982 ± 0.023
ACAGATGGAA	1.005 ± 0.0068
GGGTTGACCT	1.07 ± 0.067
CTGGTATAGT	1.03 ± 0.03
GCTTGCGGGG	0.9774 ± 0.0015
CAAAAGTCTT	1.02 ± 0.037

Sequence	switch fluorescence ratio
CAAGGCTGCA	1.04 ± 0.06
TACCACTTAA	1.03 ± 0.035
CGTTACTATA	1.08 ± 0.011
TAAAGTGGT	0.986 ± 0.043
GTTTCGAGCG	1.03 ± 0.013
GCCGGGCTTG	1.02 ± 0.017
TCGAGCAGCT	1.1 ± 0.032
TTTTAGTTCG	1 ± 0.028
AGTACGGAAG	1.02 ± 0.024
TTATCGATGA	1 ± 0.03
AGGGGCGTAA	1 ± 0.05
GCCTAATGTT	0.957 ± 0.022
AAGTTTCACG	1 ± 0.058
GGTTTAAAAT	0.9581 ± 0.0094
TTCATATAGG	0.984 ± 0.021
GCCGATGCCT	1.02 ± 0.015
AGAGTTGTGA	1.02 ± 0.012
TTGACCAATA	1.12 ± 0.016
TGGGTGGTGG	0.983 ± 0.016
CGCTTAATTG	1.01 ± 0.051
GTTAGGTATA	0.9975 ± 0.0098
TAAGTTGGCT	0.958 ± 0.023
GATGGACTAA	1.02 ± 0.018

Sequence	switch fluorescence ratio
TTGGCCTTCC	2.19 ± 0.74
GCTTGATACG	1.06 ± 0.099
GGGCGAGTAT	1.016 ± 0.0029
TAAAAAGAAA	0.983 ± 0.043
ATCTTTATAT	0.994 ± 0.019
TTTTCGGGCA	0.99223 ± 4.3e-05
GAAATGTGAG	0.9797 ± 0.0045
AGAAGAAATC	1.016 ± 0.008
TATAGGCGCG	1.03 ± 0.072
GATATTTTTG	1 ± 0.024
TTGGGTATTA	0.9656 ± 0.0024
ATTTGGGCAT	0.994 ± 0.029
AGAGTCATGG	1 ± 0.013
ACAAGGGAAG	0.988 ± 0.015
AACGTCTTT	1.03 ± 0.071
TAAGGAAAGA	1.08 ± 0.12
TGGGTTAGAG	0.9878 ± 0.0052
TTAAGAATTC	0.954 ± 0.021
TGCGGTTATG	1.07 ± 0.051

From the supplement of paper PMC10126150
